± gives the uncertainty stated by the source.
B1: Glucocorticoid receptor, residues 419 to 494; numbered along this chain, P04150 (parent)
chain: KLCLVCSDEASGCHYGVLTCGSCKVFFKRAVEGQHNYLCAGRNDCIIDKIRRKNCPACRYRKCLQAGMNLEARKTK

Variants of: B1
Test: abundance fitness (aPCA) (normalised: wild type 0, dead -1); higher = more abundant; growth selection in yeast, the domain comes from the species named
Conditions: Homo sapiens

Variant | abundance fitness
KLCLVCSDEASGCHYGVLTCGSCKVFFKRAVEGQHNYLCAGRNDCIIDKIRRKNCPAVRYRKCLQAGMNLEARKTK [C58V] | -0.903 ± 0.11
KLCLVCSDEASGCHYGVLTCGSCKVFFKRAVEGQHNYLCAGRNDCIIDKIRRKNCPAWRYRKCLQAGMNLEARKTK [C58W] | -1.08 ± 0.22
KLCLVCSDEASGCHYGVLTCGSCKVFFKRAVEGQHNYLCAGRNDCIIDKIRRKNCPAYRYRKCLQAGMNLEARKTK [C58Y] | -0.405 ± 0.16
KLCLVCSDEASGCHYGVLTCGSCKVFFKRAVEGQHNYLCAGRNDCIIDKIRRKNCPASRYRKCLQAGMNLEARKTK [C58S] | -0.697 ± 0.079
KLCLVCSDEASGCHYGVLTCGSCKVFFKRAVEGQHNYLCAGRNDCIIDKIRRKNCPACRCRKCLQAGMNLEARKTK [Y60C] | -0.694 ± 0.16
KLCLVCSDEASGCHYGVLTCGSCKVFFKRAVEGQHNYLCAGRNDCIIDKIRRKNCPACRIRKCLQAGMNLEARKTK [Y60I] | -0.09 ± 0.078
KLCLVCSDEASGCHYGVLTCGSCKVFFKRAVEGQHNYLCAGRNDCIIDKIRRKNCPACRLRKCLQAGMNLEARKTK [Y60L] | 0.002 ± 0.036
KLCLVCSDEASGCHYGVLTCGSCKVFFKRAVEGQHNYLCAGRNDCIIDKIRRKNCPACRPRKCLQAGMNLEARKTK [Y60P] | -0.724 ± 0.12
KLCLVCSDEASGCHYGVLTCGSCKVFFKRAVEGQHNYLCAGRNDCIIDKIRRKNCPACRNRKCLQAGMNLEARKTK [Y60N] | -0.478 ± 0.13
KLCLVCSDEASGCHYGVLTCGSCKVFFKRAVEGQHNYLCAGRNDCIIDKIRRKNCPACRARKCLQAGMNLEARKTK [Y60A] | -0.425 ± 0.052
KLCLVCSDEASGCHYGVLTCGSCKVFFKRAVEGQHNYLCAGRNDCIIDKIRRKNCPACRDRKCLQAGMNLEARKTK [Y60D] | -0.907 ± 0.17
KLCLVCSDEASGCHYGVLTCGSCKVFFKRAVEGQHNYLCAGRNDCIIDKIRRKNCPACRGRKCLQAGMNLEARKTK [Y60G] | -0.809 ± 0.086
KLCLVCSDEASGCHYGVLTCGSCKVFFKRAVEGQHNYLCAGRNDCIIDKIRRKNCPACRFRKCLQAGMNLEARKTK [Y60F] | 0.004 ± 0.085
KLCLVCSDEASGCHYGVLTCGSCKVFFKRAVEGQHNYLCAGRNDCIIDKIRRKNCPACRKRKCLQAGMNLEARKTK [Y60K] | -0.011 ± 0.054
KLCLVCSDEASGCHYGVLTCGSCKVFFKRAVEGQHNYLCAGRNDCIIDKIRRKNCPACRSRKCLQAGMNLEARKTK [Y60S] | -0.535 ± 0.06
KLCLVCSDEASGCHYGVLTCGSCKVFFKRAVEGQHNYLCAGRNDCIIDKIRRKNCPACRVRKCLQAGMNLEARKTK [Y60V] | -0.215 ± 0.037
KLCLVCSDEASGCHYGVLTCGSCKVFFKRAVEGQHNYLCAGRNDCIIDKIRRKNCPACRHRKCLQAGMNLEARKTK [Y60H] | -0.178 ± 0.11
KLCLVCSDEASGCHYGVLTCGSCKVFFKRAVEGQHNYLCAGRNDCIIDKIRRKNCPACRMRKCLQAGMNLEARKTK [Y60M] | -0.07 ± 0.049

Variant | abundance fitness
KLCLVCSDEASGCHYGVLTCGSCKVFFKRAVEGQHNYLCAGRNDCIIDKIRRKNCPACRWRKCLQAGMNLEARKTK [Y60W] | -0.036 ± 0.041
KLCLVCSDEASGCHYGVLTCGSCKVFFKRAVEGQHNYLCAGRNDCIIDKIRRKNCPACWYRKCLQAGMNLEARKTK [R59W] | 0.017 ± 0.037
KLCLVCSDEASGCHYGVLTCGSCKVFFKRAVEGQHNYLCAGRNDCIIDKIRRKNCPACHYRKCLQAGMNLEARKTK [R59H] | 0.014 ± 0.09
KLCLVCSDEASGCHYGVLTCGSCKVFFKRAVEGQHNYLCAGRNDCIIDKIRRKNCPACYYRKCLQAGMNLEARKTK [R59Y] | -0.087 ± 0.074
KLCLVCSDEASGCHYGVLTCGSCKVFFKRAVEGQHNYLCAGRNDCIIDKIRRKNCPACSYRKCLQAGMNLEARKTK [R59S] | -0.81 ± 0.1
KLCLVCSDEASGCHYGVLTCGSCKVFFKRAVEGQHNYLCAGRNDCIIDKIRRKNCPACFYRKCLQAGMNLEARKTK [R59F] | -0.513 ± 0.12
KLCLVCSDEASGCHYGVLTCGSCKVFFKRAVEGQHNYLCAGRNDCIIDKIRRKNCPACPYRKCLQAGMNLEARKTK [R59P] | -0.737 ± 0.11
KLCLVCSDEASGCHYGVLTCGSCKVFFKRAVEGQHNYLCAGRNDCIIDKIRRKNCPACDYRKCLQAGMNLEARKTK [R59D] | -0.609 ± 0.21
KLCLVCSDEASGCHYGVLTCGSCKVFFKRAVEGQHNYLCAGRNDCIIDKIRRKNCPACLYRKCLQAGMNLEARKTK [R59L] | -0.017 ± 0.035
KLCLVCSDEASGCHYGVLTCGSCKVFFKRAVEGQHNYLCAGRNDCIIDKIRRKNCPACNYRKCLQAGMNLEARKTK [R59N] | -0.817 ± 0.23
KLCLVCSDEASGCHYGVLTCGSCKVFFKRAVEGQHNYLCAGRNDCIIDKIRRKNCPACVYRKCLQAGMNLEARKTK [R59V] | -0.783 ± 0.082
KLCLVCSDEASGCHYGVLTCGSCKVFFKRAVEGQHNYLCAGRNDCIIDKIRRKNCPACMYRKCLQAGMNLEARKTK [R59M] | -0.171 ± 0.054
KLCLVCSDEASGCHYGVLTCGSCKVFFKRAVEGQHNYLCAGRNDCIIDKIRRKNCPACGYRKCLQAGMNLEARKTK [R59G] | -0.825 ± 0.076
KLCLVCSDEASGCHYGVLTCGSCKVFFKRAVEGQHNYLCAGRNDCIIDKIRRKNCPACAYRKCLQAGMNLEARKTK [R59A] | -0.702 ± 0.067
KLCLVCSDEASGCHYGVLTCGSCKVFFKRAVEGQHNYLCAGRNDCIIDKIRRKNCPACQYRKCLQAGMNLEARKTK [R59Q] | -0.259 ± 0.048
KLCLVCSDEASGCHYGVLTCGSCKVFFKRAVEGQHNYLCAGRNDCIIDKIRRKNCPACEYRKCLQAGMNLEARKTK [R59E] | -0.583 ± 0.067
KLCLVCSDEASGCHYGVLTCGSCKVFFKRAVEGQHNYLCAGRNDCIIDKIRRKNCPACIYRKCLQAGMNLEARKTK [R59I] | -0.694 ± 0.18
KLCLVCSDEASGCHYGVLTCGSCKVFFKRAVEGQHNYLCAGRNDCIIDKIRRKNCPACKYRKCLQAGMNLEARKTK [R59K] | -0.52 ± 0.078

— the Human Domainome abundance scans (Beltran et al. 2025)
